This note sets out measurements from CN117603358A.

The experiment deals with S蛋白, SARS-CoV-2原型毒株 (SARS-CoV-2 (prototype)) (UniProt P0DTC2). Put plainly: cell-based or functional assay.

Substance LY-CoV1404 (antibody) came in with a 假病毒中和活性 IC50 of 1.19 ng/mL.
